Measurements from PMC13570301.

Columns and labels:
[1] = biological target: CHIP Y230Cfs∗9, recombinant, C-terminal His tag (human) (UniProt Q9UNE7); assay: mass photometry; Refeyn OneMP; CHIP at 50 nM final (a subset also at 20 nM and 100 nM) in 20 mM HEPES pH 8.0, 200 mM NaCl; self-association, oligomeric states by mass
[2] = biological target: UBE2D2 (1–147), from the plasmid pHis//2 Hs UBE2D2 (1–147) (human) (UniProt P62837); assay: BLI; details: enzyme
UBE2D2 (1–147), from the plasmid pHis//2 Hs UBE2D2 (1–147) (human), sequence (P62837 whole entry): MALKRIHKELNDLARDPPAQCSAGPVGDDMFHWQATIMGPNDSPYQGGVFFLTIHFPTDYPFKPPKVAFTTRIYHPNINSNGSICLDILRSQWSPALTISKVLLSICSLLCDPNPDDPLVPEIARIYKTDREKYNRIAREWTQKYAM

CHIP Y230Cfs∗9, recombinant, C-terminal His tag, sequence (Q9UNE7 whole entry): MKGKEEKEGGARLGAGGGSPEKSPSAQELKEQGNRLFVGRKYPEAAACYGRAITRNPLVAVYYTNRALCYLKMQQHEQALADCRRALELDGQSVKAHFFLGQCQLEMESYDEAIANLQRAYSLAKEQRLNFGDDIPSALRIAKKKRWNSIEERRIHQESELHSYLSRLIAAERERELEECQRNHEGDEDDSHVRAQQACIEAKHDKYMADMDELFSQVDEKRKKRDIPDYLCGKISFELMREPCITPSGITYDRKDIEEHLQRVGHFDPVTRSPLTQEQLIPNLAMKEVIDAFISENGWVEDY
CHIP L275Dfs∗16, recombinant, C-terminal His tag, sequence (Q9UNE7 whole entry): as above

Row | Substance | percent of the protein as dimer [1] [%] | stoichiometry N [1] | Kd [2] [µM]
1 | CHIP Y230Cfs∗9, recombinant, C-terminal His tag (from UniProt Q9UNE7-1 1-303) (enzyme) | 80 | 2 | 
2 | CHIP L275Dfs∗16, recombinant, C-terminal His tag (from UniProt Q9UNE7-1 1-303) |  |  | 308
